Numbering of substitutions follows the chain as printed.

In assay [1] the target is T1, human CD3ed-Fc (biotin-labeled human CD3 epsilon and human CD3 delta linked to a human antibody constant … (human, biotin-labeled (BirA co-expression); site not stated).
T1 construct: also called CD3 epsilon delta heterodimer fused with the antibody constant region
T1 chain 1: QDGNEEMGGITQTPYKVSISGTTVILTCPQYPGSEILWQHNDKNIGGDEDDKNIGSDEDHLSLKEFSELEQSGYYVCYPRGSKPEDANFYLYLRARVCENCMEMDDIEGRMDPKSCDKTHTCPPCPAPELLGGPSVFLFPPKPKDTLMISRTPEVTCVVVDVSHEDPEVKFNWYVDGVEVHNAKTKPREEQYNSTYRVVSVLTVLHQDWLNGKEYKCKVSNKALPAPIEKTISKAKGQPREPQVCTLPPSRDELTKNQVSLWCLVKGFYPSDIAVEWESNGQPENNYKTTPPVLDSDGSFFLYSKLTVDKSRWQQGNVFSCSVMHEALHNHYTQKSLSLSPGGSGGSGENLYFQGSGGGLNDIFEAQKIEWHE
T1 chain 2: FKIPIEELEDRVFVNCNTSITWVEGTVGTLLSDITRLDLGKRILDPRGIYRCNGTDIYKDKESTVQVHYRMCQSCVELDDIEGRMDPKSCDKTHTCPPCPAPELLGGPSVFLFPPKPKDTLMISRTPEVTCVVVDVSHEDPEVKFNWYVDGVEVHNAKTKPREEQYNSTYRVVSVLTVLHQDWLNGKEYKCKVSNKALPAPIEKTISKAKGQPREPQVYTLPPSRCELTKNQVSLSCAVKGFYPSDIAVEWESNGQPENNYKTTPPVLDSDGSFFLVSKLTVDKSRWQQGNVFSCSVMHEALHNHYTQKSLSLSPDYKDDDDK
The experiment in a line: BLI (Octet RED) as in Example 3. For orientation: BLI is a label-free optical method that tracks binding on a fibre tip over time.

The target in a further assay is T2, biotinylated plexin A1 (human, UniProt Q9UIW2 27-1253, biotin on the AviTag sequence (SEQ ID NO: 36)).
T2 construct: also called biotin-labeled human plexin A1; human plexin A1
T2 sequence (Q9UIW2 other isoform, or with tags, fused parts or gaps limits assumed): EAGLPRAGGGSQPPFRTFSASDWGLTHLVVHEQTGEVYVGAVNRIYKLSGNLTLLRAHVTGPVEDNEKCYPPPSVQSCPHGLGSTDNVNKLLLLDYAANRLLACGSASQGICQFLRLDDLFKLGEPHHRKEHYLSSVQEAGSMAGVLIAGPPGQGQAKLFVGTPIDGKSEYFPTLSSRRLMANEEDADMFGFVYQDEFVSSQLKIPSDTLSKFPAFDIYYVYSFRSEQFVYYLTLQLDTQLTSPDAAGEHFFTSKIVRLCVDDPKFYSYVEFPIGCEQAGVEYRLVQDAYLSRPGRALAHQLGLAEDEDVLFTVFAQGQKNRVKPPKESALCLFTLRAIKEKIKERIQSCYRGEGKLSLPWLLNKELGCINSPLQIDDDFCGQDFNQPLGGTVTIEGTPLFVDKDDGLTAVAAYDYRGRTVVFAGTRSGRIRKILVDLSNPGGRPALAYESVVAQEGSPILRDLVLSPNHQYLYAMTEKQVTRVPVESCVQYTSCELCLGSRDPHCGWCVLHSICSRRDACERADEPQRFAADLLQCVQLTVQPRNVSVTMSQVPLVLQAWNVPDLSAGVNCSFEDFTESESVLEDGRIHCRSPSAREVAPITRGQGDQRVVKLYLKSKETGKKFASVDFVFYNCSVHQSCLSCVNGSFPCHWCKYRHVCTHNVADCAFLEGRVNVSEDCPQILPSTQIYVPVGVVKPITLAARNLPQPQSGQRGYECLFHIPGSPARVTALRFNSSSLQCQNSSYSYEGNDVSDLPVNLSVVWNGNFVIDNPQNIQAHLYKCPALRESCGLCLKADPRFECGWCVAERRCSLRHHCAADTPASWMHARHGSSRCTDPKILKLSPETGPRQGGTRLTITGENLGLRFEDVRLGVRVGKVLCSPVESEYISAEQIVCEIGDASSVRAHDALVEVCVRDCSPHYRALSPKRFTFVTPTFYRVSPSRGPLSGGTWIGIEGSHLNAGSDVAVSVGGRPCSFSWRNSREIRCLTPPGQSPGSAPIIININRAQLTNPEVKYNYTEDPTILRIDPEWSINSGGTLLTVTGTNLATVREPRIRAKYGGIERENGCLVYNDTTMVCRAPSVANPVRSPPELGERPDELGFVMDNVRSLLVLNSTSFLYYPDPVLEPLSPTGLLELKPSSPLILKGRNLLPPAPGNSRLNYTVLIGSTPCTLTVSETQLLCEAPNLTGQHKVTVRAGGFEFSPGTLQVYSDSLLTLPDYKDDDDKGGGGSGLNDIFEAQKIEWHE
The experiment in a line: BLI (Octet) as in Example 3.

B1: bC3edL1R1N161H01-G1mISHI01/VK1-39-k0MT (before protease treatment) (antibody, human IgG1, kappa, V domains shown)
VH: QVQLVESGGGLVQPGGSLRLSCAASGFPFDNYVMSWVRQAPGKGLEWISAISWNGGSTYYAESMKGRFTISRDNAKSTLYLQMNSLKSEDTAVYYCAKEPRVYYSGSPDYWGQGTQVTVSG
VL: DIQMTQSPSSLSASVGDRVTITCRASQSISSYLNWYQQKPGKAPKLLIYAASSLQSGVPSRFSGSGSGTDFTLTISSLQPEDFATYYCLQFDSYPLTFGGGTKVEIKR
notes: Uncleaved
Turning to B1, in assay [1], the binding result is “no binding”.

B2: PX02-R4_017-G1mISHI01/VK1-39-k0MT (before protease treatment) (antibody, human IgG1, kappa, V domains shown)
VH: QVQLVESGGGLVQPGGSLRLSCTASGISFSISTMGWYRQAPGKQRELVATITSGGEAYYANSMKDRFTISRDNAENTVYLQMNRLKPEDSAVYYCNTKFPWSTDWNARGQGTQVTVSG
VL: B1 VL
notes: Uncleaved
As to B2, the binding result with biotinylated plexin A1 is “no binding”.

B3: bC3edL1R1N164H01-G1mISHI01/VK1-39-k0MT (before protease treatment) (antibody, human IgG1, kappa, V domains shown)
VH: QVQLVESGGGLVQPGGSLRLSCAASGFTFDVYGMSWVRHSPGKGLEWVSTINWNGGSTYYAESMKGRFTISRDNAKNTVYLQMNSLKPEDTAVYYCAKFAPWDGDMEWGQGTQVTVSG
VL: B1 VL
notes: Uncleaved
Turning to B3, in assay [1], the binding result is given as “no binding”.

B4: PX03-R2_006-G1mISHI01/VK1-39-k0MT (before protease treatment) (antibody, human IgG1, kappa, V domains shown)
VH: B2 VH with V2L, T52A, M63V, D65G
VL: B1 VL
notes: Uncleaved
B4: the binding result with biotinylated plexin A1 is listed as “no binding”.

B5: PX03-R4_009-G1mISHI01/VK1-39-k0MT (before protease treatment) (antibody, human IgG1, kappa, V domains shown)
VH: B2 VH with V2L, T52A, M63V, D65G, D72E, N73Y, Y79F
VL: B1 VL
notes: Uncleaved
Regarding B5, the binding result with biotinylated plexin A1 is given as “no binding”.
